Laboratory results from publication PMC10362037.

Target: SARS-CoV-2 Omicron (B.1.1.529) Spike S1 (Sino Biological, 40591-V08H41) (SARS-CoV-2)
Test: SPR

For “Human integrin αvβ3 (R&D Systems, 3817-AV-050) (from UniProt P06756 31-1048; P05106 27-718) (complex)”, the Kd was 69.4 nM.
